Numbered stars: 1 amine (or outer) side, 2 acyl side, 3 side chain; on linkers, the order of the positions; unused ones are H or OH. Bridge positions count the residues as written; N and C are the ends. Side chains are listed from the residue outwards. Ends that are not written are not given here. * marks the point of attachment. C20 diacid = O=C(O)CCCCCCCCCCCCCCCCCCC(=O)*; γGlu = O=C(O)[C@H](CCC(=O)[*:2])N[*:1]
T1: human calcitonin receptor (human, UniProt P30988 25-474)
T1 sequence (looked up): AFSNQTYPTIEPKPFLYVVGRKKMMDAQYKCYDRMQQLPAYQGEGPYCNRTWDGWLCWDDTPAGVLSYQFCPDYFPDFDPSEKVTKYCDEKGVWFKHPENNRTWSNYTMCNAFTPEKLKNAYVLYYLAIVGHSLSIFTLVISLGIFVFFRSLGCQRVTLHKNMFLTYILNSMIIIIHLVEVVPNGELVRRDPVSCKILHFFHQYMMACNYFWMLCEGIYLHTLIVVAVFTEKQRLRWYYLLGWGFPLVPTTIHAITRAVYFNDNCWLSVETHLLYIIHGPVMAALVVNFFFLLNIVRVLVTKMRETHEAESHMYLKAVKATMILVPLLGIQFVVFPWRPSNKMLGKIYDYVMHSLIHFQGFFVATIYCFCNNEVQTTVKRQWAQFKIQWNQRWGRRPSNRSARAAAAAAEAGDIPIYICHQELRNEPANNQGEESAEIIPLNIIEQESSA

T2: rat calcitonin receptor (rat, UniProt P32214 25-516)
T2 construct: whole, on cells; Used as membranes prepared from the transfected cells; also called rCTR; rCT
T2 sequence (looked up): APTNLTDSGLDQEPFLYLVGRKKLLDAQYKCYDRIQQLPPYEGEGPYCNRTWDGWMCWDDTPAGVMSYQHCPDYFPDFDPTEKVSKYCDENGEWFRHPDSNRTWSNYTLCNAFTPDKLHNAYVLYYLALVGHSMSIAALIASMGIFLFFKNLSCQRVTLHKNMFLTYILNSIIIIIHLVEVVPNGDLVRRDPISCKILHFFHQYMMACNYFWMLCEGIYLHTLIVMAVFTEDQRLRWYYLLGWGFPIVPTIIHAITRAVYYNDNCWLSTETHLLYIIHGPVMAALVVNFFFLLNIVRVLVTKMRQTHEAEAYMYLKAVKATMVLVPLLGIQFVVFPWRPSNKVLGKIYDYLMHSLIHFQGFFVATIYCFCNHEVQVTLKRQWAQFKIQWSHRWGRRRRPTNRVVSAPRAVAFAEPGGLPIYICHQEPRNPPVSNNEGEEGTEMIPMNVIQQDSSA

T3: human calcitonin receptor (human, UniProt P30988 25-474)
T3 construct: whole, on cells; Used as membranes prepared from the transfected cells; also called hCTR; hCT
T3 sequence (looked up): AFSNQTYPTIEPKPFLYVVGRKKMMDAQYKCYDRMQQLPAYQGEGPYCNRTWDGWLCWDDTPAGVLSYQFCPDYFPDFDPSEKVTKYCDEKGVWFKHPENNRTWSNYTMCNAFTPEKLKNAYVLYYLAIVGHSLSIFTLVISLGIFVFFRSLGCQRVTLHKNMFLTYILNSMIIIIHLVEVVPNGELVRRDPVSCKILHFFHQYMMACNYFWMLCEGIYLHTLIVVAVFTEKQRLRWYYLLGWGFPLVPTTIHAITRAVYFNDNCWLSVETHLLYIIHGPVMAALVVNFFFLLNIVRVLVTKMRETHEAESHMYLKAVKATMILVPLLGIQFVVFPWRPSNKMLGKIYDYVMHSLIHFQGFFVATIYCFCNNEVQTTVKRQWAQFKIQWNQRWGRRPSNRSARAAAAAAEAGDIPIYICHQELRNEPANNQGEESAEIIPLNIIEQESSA

T4: rat amylin receptor (rat calcitonin receptor with rat RAMP 3) (rat, UniProt P32214 25-516; Q9JJ73 23-147)
T4 construct: whole, on cells; Used as membranes prepared from the transfected cells; also called rAmylin-R; rAmylin
T4 sequence (looked up) 1: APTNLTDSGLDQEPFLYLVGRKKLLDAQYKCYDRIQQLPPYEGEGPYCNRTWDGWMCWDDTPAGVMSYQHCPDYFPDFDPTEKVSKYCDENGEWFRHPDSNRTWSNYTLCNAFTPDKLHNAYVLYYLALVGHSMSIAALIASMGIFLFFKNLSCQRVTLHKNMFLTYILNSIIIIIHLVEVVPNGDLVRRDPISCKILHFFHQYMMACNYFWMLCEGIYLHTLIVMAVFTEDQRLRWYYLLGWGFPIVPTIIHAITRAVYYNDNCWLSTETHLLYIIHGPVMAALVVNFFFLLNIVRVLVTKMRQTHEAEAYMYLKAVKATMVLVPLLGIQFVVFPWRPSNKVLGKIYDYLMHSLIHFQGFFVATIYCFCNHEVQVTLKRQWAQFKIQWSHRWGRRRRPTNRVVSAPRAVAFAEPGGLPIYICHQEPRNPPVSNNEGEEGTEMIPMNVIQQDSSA
T4 sequence (looked up) 2: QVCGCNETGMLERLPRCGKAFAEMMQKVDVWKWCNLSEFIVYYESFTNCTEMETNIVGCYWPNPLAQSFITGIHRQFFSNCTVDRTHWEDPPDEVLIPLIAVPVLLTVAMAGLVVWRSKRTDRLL


What was measured:
[1] = target: T1, human calcitonin receptor; experiment: cell-based or functional assay
rat calcitonin receptor [2] = target: T2, rat calcitonin receptor; experiment: SPA competition with 125I-calcitonin, membranes with rat calcitonin receptor (Assay VIII)
rat calcitonin receptor [3] = target: T2, rat calcitonin receptor; experiment: ratio of binding IC50 at rat calcitonin receptor to IC50 at rat amylin receptor (reference)
[4] = target: T3, human calcitonin receptor; experiment: ratio of binding IC50 at human calcitonin receptor to IC50 at human amylin receptor (reference)
Procedure, shortened: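 Scintillation proximity competition binding on cell membranes at 35 ng/μL with SPA beads, in 50 mM Hepes pH 7.4, 1 mM CaCl2, 5 mM MgCl₂, 0.1% OA, 0.02% Tween20. Incubated 120 min at 25° C with shaking. IC₅₀ from one-site competition fit.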

[5] = target: T4, rat amylin receptor (rat calcitonin …); experiment: SPA competition with 125I-rat amylin, membranes with rat calcitonin receptor + rat RAMP3 (Assay VI)

hCTR funct. EC50 (pM) [1]	IC50 (rat calcitonin receptor [2])	Ratio rCT/rAmylin binding (rat calcitonin receptor [3])	Ratio hCT/hAmylin binding [4]	IC50 [5]	Binder
19200 pM	–	–	–	–	K([γGlu-γGlu-C20 diacid])CNTATCATQRLANFLRHSSPNFGAIPSSTNVGHNTY-NH2 (disulfide 2-7; N-terminus assumed; SMILES CC[C@H](C)[C@H](NC(=O)[C@H](C)NC(=O)CNC(=O)[C@H](Cc1ccccc1)NC(=O)[C@H](CC(N)=O)NC(=O)[C@@H]1CCCN1C(=O)[C@H](CO)NC(=O)[C@H](CO)NC(=O)[C@H](Cc1c[nH]cn1)NC(=O)[C@H](CCCNC(=N)N)NC(=O)[C@H](CC(C)C)NC(=O)[C@H](Cc1ccccc1)NC(=O)[C@H](CC(N)=O)NC(=O)[C@H](C)NC(=O)[C@H](CC(C)C)NC(=O)[C@H](CCCNC(=N)N)NC(=O)[C@H](CCC(N)=O)NC(=O)[C@@H](NC(=O)[C@H](C)NC(=O)[C@@H]1CSSC[C@H](NC(=O)[C@@H](N)CCCCNC(=O)CC[C@H](NC(=O)CC[C@H](NC(=O)CCCCCCCCCCCCCCCCCCC(=O)O)C(=O)O)C(=O)O)C(=O)N[C@@H](CC(N)=O)C(=O)N[C@@H]([C@@H](C)O)C(=O)N[C@@H](C)C(=O)N[C@@H]([C@@H](C)O)C(=O)N1)[C@@H](C)O)C(=O)N1CCC[C@H]1C(=O)N[C@@H](CO)C(=O)N[C@@H](CO)C(=O)N[C@H](C(=O)N[C@@H](CC(N)=O)C(=O)N[C@H](C(=O)NCC(=O)N[C@@H](Cc1c[nH]cn1)C(=O)N[C@@H](CC(N)=O)C(=O)N[C@H](C(=O)N[C@@H](Cc1ccc(O)cc1)C(N)=O)[C@@H](C)O)C(C)C)[C@@H](C)O, Synthetic acylated analogue of human amylin; also called compound 86)
–	492 nM	60.9	68.6	8.07 nM	{C20 diacid-γGlu}-GRCNTATCATQRLAAFLRHSSPNFGAIPSSTNVGHNTY-NH2 (disulfide 3-8; SMILES CC[C@H](C)[C@H](NC(=O)[C@H](C)NC(=O)CNC(=O)[C@H](Cc1ccccc1)NC(=O)[C@H](CC(N)=O)NC(=O)[C@@H]1CCCN1C(=O)[C@H](CO)NC(=O)[C@H](CO)NC(=O)[C@H](Cc1c[nH]cn1)NC(=O)[C@H](CCCNC(=N)N)NC(=O)[C@H](CC(C)C)NC(=O)[C@H](Cc1ccccc1)NC(=O)[C@H](C)NC(=O)[C@H](C)NC(=O)[C@H](CC(C)C)NC(=O)[C@H](CCCNC(=N)N)NC(=O)[C@H](CCC(N)=O)NC(=O)[C@@H](NC(=O)[C@H](C)NC(=O)[C@@H]1CSSC[C@H](NC(=O)[C@H](CCCNC(=N)N)NC(=O)CNC(=O)CC[C@H](NC(=O)CCCCCCCCCCCCCCCCCCC(=O)O)C(=O)O)C(=O)N[C@@H](CC(N)=O)C(=O)N[C@@H]([C@@H](C)O)C(=O)N[C@@H](C)C(=O)N[C@@H]([C@@H](C)O)C(=O)N1)[C@@H](C)O)C(=O)N1CCC[C@H]1C(=O)N[C@@H](CO)C(=O)N[C@@H](CO)C(=O)N[C@H](C(=O)N[C@@H](CC(N)=O)C(=O)N[C@H](C(=O)NCC(=O)N[C@@H](Cc1c[nH]cn1)C(=O)N[C@@H](CC(N)=O)C(=O)N[C@H](C(=O)N[C@@H](Cc1ccc(O)cc1)C(N)=O)[C@@H](C)O)C(C)C)[C@@H](C)O, Analogue of human amylin extended by Gly at the N-terminus; disulfide and C-terminal amide as told for h-amylin)
–	216 nM	79.8	100	2.7 nM	{C20 diacid-γGlu}-GRCNTATCATQRLAHFLRHSSPNFGAIPSSTNVGSNTY-NH2 (disulfide 3-8; SMILES CC[C@H](C)[C@H](NC(=O)[C@H](C)NC(=O)CNC(=O)[C@H](Cc1ccccc1)NC(=O)[C@H](CC(N)=O)NC(=O)[C@@H]1CCCN1C(=O)[C@H](CO)NC(=O)[C@H](CO)NC(=O)[C@H](Cc1c[nH]cn1)NC(=O)[C@H](CCCNC(=N)N)NC(=O)[C@H](CC(C)C)NC(=O)[C@H](Cc1ccccc1)NC(=O)[C@H](Cc1c[nH]cn1)NC(=O)[C@H](C)NC(=O)[C@H](CC(C)C)NC(=O)[C@H](CCCNC(=N)N)NC(=O)[C@H](CCC(N)=O)NC(=O)[C@@H](NC(=O)[C@H](C)NC(=O)[C@@H]1CSSC[C@H](NC(=O)[C@H](CCCNC(=N)N)NC(=O)CNC(=O)CC[C@H](NC(=O)CCCCCCCCCCCCCCCCCCC(=O)O)C(=O)O)C(=O)N[C@@H](CC(N)=O)C(=O)N[C@@H]([C@@H](C)O)C(=O)N[C@@H](C)C(=O)N[C@@H]([C@@H](C)O)C(=O)N1)[C@@H](C)O)C(=O)N1CCC[C@H]1C(=O)N[C@@H](CO)C(=O)N[C@@H](CO)C(=O)N[C@H](C(=O)N[C@@H](CC(N)=O)C(=O)N[C@H](C(=O)NCC(=O)N[C@@H](CO)C(=O)N[C@@H](CC(N)=O)C(=O)N[C@H](C(=O)N[C@@H](Cc1ccc(O)cc1)C(N)=O)[C@@H](C)O)C(C)C)[C@@H](C)O, Analogue of human amylin extended by Gly at the N-terminus; disulfide and C-terminal amide as told for h-amylin; also called compound 99)

— US20140087995A1 (published 2014)
